The values below come from article PMC4526367, “Weak Interactions between Salmonella enterica FlhB and Other Flagellar Export Apparatus Proteins Govern Type III Secretion Dynamics” (PLoS ONE, 2015).

Where two headings read alike, the source gives them in different places.

The target in data set [1] is FlhB cytoplasmic domain (Salmonella enterica) (UniProt P40727). Put plainly: SPR. The following applies: cited from earlier work.
The target of another data set is FliK (UniProt P26416). Description: BLI.
FliK (UniProt P26416), sequence (P26416 whole entry, the tested form may be a part): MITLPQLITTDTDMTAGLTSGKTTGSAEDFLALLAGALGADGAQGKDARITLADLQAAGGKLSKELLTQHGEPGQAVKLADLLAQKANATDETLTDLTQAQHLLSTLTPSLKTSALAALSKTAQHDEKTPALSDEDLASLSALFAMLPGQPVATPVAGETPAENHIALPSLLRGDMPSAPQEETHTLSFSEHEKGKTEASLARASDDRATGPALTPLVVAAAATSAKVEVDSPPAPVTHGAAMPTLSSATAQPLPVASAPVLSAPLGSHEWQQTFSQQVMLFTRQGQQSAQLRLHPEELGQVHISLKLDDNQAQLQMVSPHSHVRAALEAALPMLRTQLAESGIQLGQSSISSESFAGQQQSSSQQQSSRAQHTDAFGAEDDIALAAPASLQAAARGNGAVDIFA
The target of data set [2] is cytoplasmic domain of FlhA (FlhAC) (UniProt P40729). Put plainly: BLI; FlhAC ligand on streptavidin sensors, FlhBC analyte 2, 1, 0.5, 0.25 and 0.125 uM; HBS-T, 25°C; one-state association fits, global two-state dissociation fit, steady state analysis, kobs vs [FlhBC].
cytoplasmic domain of FlhA (FlhAC), sequence (P40729 whole entry, the tested form may be a part): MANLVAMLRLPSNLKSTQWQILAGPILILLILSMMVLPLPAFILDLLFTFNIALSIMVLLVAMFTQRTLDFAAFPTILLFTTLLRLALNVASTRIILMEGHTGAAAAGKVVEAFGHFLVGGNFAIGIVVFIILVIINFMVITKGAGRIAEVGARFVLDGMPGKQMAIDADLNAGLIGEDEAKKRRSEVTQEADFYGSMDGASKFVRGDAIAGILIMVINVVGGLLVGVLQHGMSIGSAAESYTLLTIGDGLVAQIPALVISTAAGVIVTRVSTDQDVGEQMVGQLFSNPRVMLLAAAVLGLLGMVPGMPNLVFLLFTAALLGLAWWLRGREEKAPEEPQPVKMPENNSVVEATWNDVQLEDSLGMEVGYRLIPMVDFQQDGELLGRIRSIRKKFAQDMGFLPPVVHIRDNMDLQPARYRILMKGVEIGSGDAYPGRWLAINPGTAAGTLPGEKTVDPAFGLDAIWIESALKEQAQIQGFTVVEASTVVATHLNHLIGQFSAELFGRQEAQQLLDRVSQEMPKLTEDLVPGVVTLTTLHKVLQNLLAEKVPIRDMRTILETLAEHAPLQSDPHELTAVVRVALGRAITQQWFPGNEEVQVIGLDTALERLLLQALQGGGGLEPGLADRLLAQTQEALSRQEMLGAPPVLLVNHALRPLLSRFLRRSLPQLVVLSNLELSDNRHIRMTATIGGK
For data set [3] the target is unchanged. The data set is described as above. This is another data set of the same source.
The target in data set [4] is T1, full-length wild-type FlhB (Salmonella enterica, UniProt P40727).
T1 construct: also called FlhB from pMM9; source: overproduced from pMM9, purified under nondenaturing conditions from solubilized crude membrane fractions
T1 sequence 1: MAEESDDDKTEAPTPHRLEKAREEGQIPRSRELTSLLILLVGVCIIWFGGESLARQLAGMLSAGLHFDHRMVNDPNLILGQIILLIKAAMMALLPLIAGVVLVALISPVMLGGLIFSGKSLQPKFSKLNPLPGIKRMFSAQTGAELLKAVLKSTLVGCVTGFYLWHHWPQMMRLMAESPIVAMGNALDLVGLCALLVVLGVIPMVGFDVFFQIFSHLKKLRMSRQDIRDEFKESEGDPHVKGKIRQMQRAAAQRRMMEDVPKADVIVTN
T1 sequence 2: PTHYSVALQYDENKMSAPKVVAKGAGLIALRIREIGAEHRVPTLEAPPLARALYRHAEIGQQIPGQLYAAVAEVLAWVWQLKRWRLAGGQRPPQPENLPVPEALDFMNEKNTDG
Description: BLI. The following applies: both partners purified.

Data set [5] deals with T2, FliI (UniProt P26465 1-456, biotin by amine crosslinking (NHS-LC-LC-biotin) when used as ligand).
T2 construct: source: E. coli BL21DE3(pLysS), purified (Talon IMAC, gel filtration into HBS-T)
T2 sequence: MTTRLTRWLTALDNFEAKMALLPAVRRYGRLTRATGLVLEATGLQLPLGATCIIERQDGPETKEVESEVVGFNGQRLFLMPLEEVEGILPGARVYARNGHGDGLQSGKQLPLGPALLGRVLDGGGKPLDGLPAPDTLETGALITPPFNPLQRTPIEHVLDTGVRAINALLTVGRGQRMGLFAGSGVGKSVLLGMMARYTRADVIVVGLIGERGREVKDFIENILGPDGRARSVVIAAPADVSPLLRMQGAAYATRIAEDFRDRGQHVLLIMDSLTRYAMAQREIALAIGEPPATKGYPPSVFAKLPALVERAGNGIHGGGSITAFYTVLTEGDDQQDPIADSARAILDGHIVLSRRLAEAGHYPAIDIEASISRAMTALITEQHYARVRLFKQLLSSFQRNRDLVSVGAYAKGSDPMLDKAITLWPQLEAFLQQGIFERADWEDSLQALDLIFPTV
Description: BLI. The conditions noted are these: both partners purified.

Data set [6] deals with T2, FliI. Put plainly: BLI; FlhBC ligand on streptavidin sensors, FliI analyte 4, 2, 1, 0.5 and 0.25 uM without ATP; HBS-T, 25°C; global one-state association-then-dissociation model. The following applies: both partners purified.
Data set [7] concerns the molecule itself. Put plainly: AUC; sedimentation equilibrium, buffer with 33 mM C8E5, scans at 280 nm; fit to a single-species model.

Turning to FliK (from UniProt P26416), the Kd in data set [1] is 3.2 µM.
In the data set with FliK, “cytoplasmic domain of FlhB (FlhBC) (from UniProt P40727 212-383) (domain or fragment)” showed a KD of the initial binding event of 8 µM, a Kd of 2100 nM, a k1 (observed rate constant of initial binding) at 1 uM FlhBC of 0.05 s⁻¹ and a k1 (observed rate constant of initial binding) at 2 uM FlhBC of 0.1 s⁻¹. In the data set with FliK, this molecule yielded a k1 (observed rate constant of initial binding) at 3 uM FlhBC of 0.2 s⁻¹; a k1 (observed rate constant of initial binding) at 4 uM FlhBC of 0.25 s⁻¹; a k1 (observed rate constant of initial binding) at 5 uM FlhBC of 0.25 s⁻¹; a k2 (dissociation of AB to the free proteins), simulation at 1 uM FlhBC of 0.44 s⁻¹. In addition, in the data set with FliK, the k2 (dissociation of AB to the free proteins), simulation at 2 uM FlhBC was 0.44 s⁻¹; the k2 (dissociation of AB to the free proteins), simulation at 3 uM FlhBC was 0.44 s⁻¹; the k2 (dissociation of AB to the free proteins), simulation at 4 uM FlhBC was 0.44 s⁻¹; the k2 (dissociation of AB to the free proteins), simulation at 5 uM FlhBC was 0.44 s⁻¹. In the data set with FliK, the k3 (shift from AB to AB*), simulation at 1 uM FlhBC is 0.0085 s⁻¹; the k3 (shift from AB to AB*), simulation at 2 uM FlhBC is 0.0085 s⁻¹; the k3 (shift from AB to AB*), simulation at 3 uM FlhBC was 0.0085 s⁻¹; the k3 (shift from AB to AB*), simulation at 4 uM FlhBC was 0.0085 s⁻¹. In the data set with FliK, the k3 (shift from AB to AB*), simulation at 5 uM FlhBC is 0.0085 s⁻¹; the k4 (shift from AB* to AB), simulation at 1 uM FlhBC is 0.008 s⁻¹; the k4 (shift from AB* to AB), simulation at 2 uM FlhBC was 0.008 s⁻¹; the k4 (shift from AB* to AB), simulation at 3 uM FlhBC is 0.008 s⁻¹. In the data set with FliK, the k4 (shift from AB* to AB), simulation at 4 uM FlhBC is 0.008 s⁻¹; the k4 (shift from AB* to AB), simulation at 5 uM FlhBC was 0.008 s⁻¹; the koff of the initial binding event was 0.44 s⁻¹; the kon of the initial binding event is 55000 M⁻¹ s⁻¹. In data set [2], this molecule came in with a Kd of 1000 nM, a koff of 0.085 s⁻¹ and a kon of 85000 M⁻¹ s⁻¹. In data set [3], this molecule showed a Kd of 1100 nM; a koff, fast state of the global two-state dissociation fit of 0.13 s⁻¹; a koff, slow state of the global two-state dissociation fit of 0.0047 s⁻¹.

B1: FliH (natural protein)
chain: MSNELPWQVWTPDDLAPPPETFVPVEADNVTLTEDTPEPELTAEQQLEQELAQLKIQAHEQGYNAGLAEGRQKGHAQGYQEGLAQGLEQGQAQAQTQQAPIHARMQQLVSEFQNTLDALDSVIASRLMQMALEAARQVIGQTPAVDNSALIKQIQQLLQQEPLFSGKPQLRVHPDDLQRVEEMLGATLSLHGWRLRGDPTLHHGGCKVSADEGDLDASVATRWQELCRLAAPGVL
modifications: biotin by amine crosslinking (NHS-LC-LC-biotin) when used as ligand
notes: source: E. coli BL21DE3(pLysS), purified (Talon IMAC, gel filtration into HBS-T)
Take B1: in data set [4], the “KD with the 2 μM sample included” value was 0.9 µM and the affinity, expressed as Kd, was 800 nM.

B2: cytoplasmic domain of FlhB (FlhBC) (domain or fragment)
chain: QIFSHLKKLRMSRQDIRDEFKESEGDPHVKGKIRQMQRAAAQRRMMEDVPKADVIVTNPTHYSVALQYDENKMSAPKVVAKGAGLIALRIREIGAEHRVPTLEAPPLARALYRHAEIGQQIPGQLYAAVAEVLAWVWQLKRWRLAGGQRPPQPENLPVPEALDFMNEKNTDG
modifications: biotin by amine crosslinking (NHS-LC-LC-biotin) when used as ligand
notes: as for B1
Turning to B2, the Kd with FliI [5] came out at 1100 nM. In the data set with FliI [6], this molecule had a Kd of 84 nM, a koff of 0.0015 s⁻¹ and a kon of 18000 M⁻¹ s⁻¹.

B3: full-length FlhB(N269A), uncleavable variant (natural protein)
chain: MAEESDDDKTEAPTPHRLEKAREEGQIPRSRELTSLLILLVGVCIIWFGGESLARQLAGMLSAGLHFDHRMVNDPNLILGQIILLIKAAMMALLPLIAGVVLVALISPVMLGGLIFSGKSLQPKFSKLNPLPGIKRMFSAQTGAELLKAVLKSTLVGCVTGFYLWHHWPQMMRLMAESPIVAMGNALDLVGLCALLVVLGVIPMVGFDVFFQIFSHLKKLRMSRQDIRDEFKESEGDPHVKGKIRQMQRAAAQRRMMEDVPKADVIVTAPTHYSVALQYDENKMSAPKVVAKGAGLIALRIREIGAEHRVPTLEAPPLARALYRHAEIGQQIPGQLYAAVAEVLAWVWQLKRWRLAGGQRPPQPENLPVPEALDFMNEKNTDG
In the case of B3, in data set [7], the “stoichiometry N” value came out at 2.
